For this data set, the system named is Escherichia coli TOP10. The data set is described as follows: shrunken log2 fold change of peptide-encoding DNA abundance (4.5 h post-induction vs induction); higher = less antimicrobial activity (less host growth inhibition). As to conditions: time post-induction: 4.5 h; library: site-saturation at positions 5, 18, 19, 20.
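Further: peptides expressed intracellularly from a pBAD plasmid library in pooled LB shake-flask culture, induced with 0.3% L-arabinose, DNA abundance read by NGS, three biological replicates, DESeq2 with apeglm shrinkage.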

Turning to RRIRIRPPRLPRPRPRPMLSPRP, the “shrunken log2 fold change” value is -0.403.

On to RRIRSRPPRLPRPRPRPYLTPRP, for which the “shrunken log2 fold change” value is -0.429.

On to RRIRGRPPRLPRPRPRPRMVPRP, for which the “shrunken log2 fold change” value stood at 0.643.

RRIRMRPPRLPRPRPRPNIRPRP: the “shrunken log2 fold change” value is -0.169.

With RRIRERPPRLPRPRPRPKEAPRP, the “shrunken log2 fold change” value was determined as 0.324.

Turning to RRIRKRPPRLPRPRPRPVRPPRP, the “shrunken log2 fold change” value was determined as 1.28.

Turning to RRIRFRPPRLPRPRPRPEEGPRP, the “shrunken log2 fold change” value turned out to be 0.00408.

With RRIRGRPPRLPRPRPRPCHMPRP, the “shrunken log2 fold change” value is -0.00127.

Consider RRIRNRPPRLPRPRPRPMACPRP, for which the “shrunken log2 fold change” value is -0.109.

As for RRIRDRPPRLPRPRPRPTGQPRP, the “shrunken log2 fold change” value was -0.0665.

Consider RRIRLRPPRLPRPRPRPMQFPRP, for which the “shrunken log2 fold change” value stood at 0.179.

Consider RRIRQRPPRLPRPRPRPESGPRP, for which the “shrunken log2 fold change” value came to 0.0279.

On to RRIRERPPRLPRPRPRPLYPPRP, for which the “shrunken log2 fold change” value is -0.458.

Turning to RRIRSRPPRLPRPRPRPSFLPRP, the “shrunken log2 fold change” value was 0.182.

For RRIRWRPPRLPRPRPRPLSRPRP, the “shrunken log2 fold change” value stood at 0.141.

On to RRIRNRPPRLPRPRPRPEGPPRP, for which the “shrunken log2 fold change” value turned out to be 0.026.

As for RRIRNRPPRLPRPRPRPTYSPRP, the “shrunken log2 fold change” value is -0.226.

On to RRIRVRPPRLPRPRPRPINDPRP, for which the “shrunken log2 fold change” value was found to be 0.0664.

Regarding RRIRPRPPRLPRPRPRPQMRPRP, the “shrunken log2 fold change” value stood at 0.806.

As to RRIRERPPRLPRPRPRPAEHPRP, the “shrunken log2 fold change” value is -0.0237.

As for RRIRFRPPRLPRPRPRPMMHPRP, the “shrunken log2 fold change” value is -0.181.

Regarding RRIRHRPPRLPRPRPRPKWGPRP, the “shrunken log2 fold change” value worked out at 0.177.

For the sequence RRIRDRPPRLPRPRPRPHKGPRP, the “shrunken log2 fold change” value was 0.0993.

Turning to RRIRCRPPRLPRPRPRPYVCPRP, the “shrunken log2 fold change” value is -0.11.

Take RRIRPRPPRLPRPRPRPNRHPRP: the “shrunken log2 fold change” value was -0.0624.

With RRIRPRPPRLPRPRPRPFQHPRP, the “shrunken log2 fold change” value was -0.00804.

For RRIRIRPPRLPRPRPRPSHTPRP, the “shrunken log2 fold change” value was -0.595.

As for RRIRKRPPRLPRPRPRPSYRPRP, the “shrunken log2 fold change” value was 0.0249.

As for RRIRPRPPRLPRPRPRPNMFPRP, the “shrunken log2 fold change” value is -0.254.

In the case of RRIRLRPPRLPRPRPRPGENPRP, the “shrunken log2 fold change” value was -0.00192.

RRIRVRPPRLPRPRPRPIFPPRP: the “shrunken log2 fold change” value was 0.199.

With RRIRQRPPRLPRPRPRPNPDPRP, the “shrunken log2 fold change” value is -0.0331.

As to RRIRMRPPRLPRPRPRPRGTPRP, the “shrunken log2 fold change” value is 1.36.

As to RRIRPRPPRLPRPRPRPEYLPRP, the “shrunken log2 fold change” value is 0.0461.

On to RRIRNRPPRLPRPRPRPVYSPRP, for which the “shrunken log2 fold change” value is -0.252.

Consider RRIRTRPPRLPRPRPRPKWSPRP, for which the “shrunken log2 fold change” value is -0.227.

With RRIRPRPPRLPRPRPRPFTSPRP, the “shrunken log2 fold change” value is -0.512.

Take RRIRTRPPRLPRPRPRPVHAPRP: the “shrunken log2 fold change” value is -0.00294.

As to RRIRCRPPRLPRPRPRPRLAPRP, the “shrunken log2 fold change” value was found to be 0.559.

For RRIRARPPRLPRPRPRPEWFPRP, the “shrunken log2 fold change” value was 0.0641.

Turning to RRIRQRPPRLPRPRPRPVFKPRP, the “shrunken log2 fold change” value is -0.0447.

Take RRIRFRPPRLPRPRPRPLSLPRP: the “shrunken log2 fold change” value is -0.0575.

As for RRIRIRPPRLPRPRPRPRTFPRP, the “shrunken log2 fold change” value is -0.143.

With RRIRTRPPRLPRPRPRPHETPRP, the “shrunken log2 fold change” value is -0.00261.

As for RRIRSRPPRLPRPRPRPVVYPRP, the “shrunken log2 fold change” value is -0.0697.

With RRIRFRPPRLPRPRPRPTSRPRP, the “shrunken log2 fold change” value is -0.291.

On to RRIRKRPPRLPRPRPRPQRMPRP, for which the “shrunken log2 fold change” value stood at 0.408.

With RRIRLRPPRLPRPRPRPSGMPRP, the “shrunken log2 fold change” value is -0.204.

Take RRIRERPPRLPRPRPRPPVLPRP: the “shrunken log2 fold change” value was 0.127.

For the sequence RRIRLRPPRLPRPRPRPKMCPRP, the “shrunken log2 fold change” value was -0.0794.

For RRIRSRPPRLPRPRPRPPYYPRP, the “shrunken log2 fold change” value is -0.174.

In the case of RRIRKRPPRLPRPRPRPELTPRP, the “shrunken log2 fold change” value came to 2.29.

Take RRIRVRPPRLPRPRPRPQMPPRP: the “shrunken log2 fold change” value stood at 0.204.

For the sequence RRIRHRPPRLPRPRPRPHLCPRP, the “shrunken log2 fold change” value is -0.0468.

For the sequence RRIRTRPPRLPRPRPRPGSLPRP, the “shrunken log2 fold change” value was -0.0994.

Take RRIRGRPPRLPRPRPRPQNNPRP: the “shrunken log2 fold change” value was -0.0456.

For RRIRFRPPRLPRPRPRPDNDPRP, the “shrunken log2 fold change” value is -0.188.

As for RRIRNRPPRLPRPRPRPKRGPRP, the “shrunken log2 fold change” value was determined as 0.00668.

As to RRIRSRPPRLPRPRPRPWHSPRP, the “shrunken log2 fold change” value was -0.0018.

On to RRIRQRPPRLPRPRPRPDVFPRP, for which the “shrunken log2 fold change” value was -0.211.

Take RRIRERPPRLPRPRPRPCQHPRP: the “shrunken log2 fold change” value is -0.0915.

For the sequence RRIRERPPRLPRPRPRPPPIPRP, the “shrunken log2 fold change” value was determined as 0.267.

On to RRIRSRPPRLPRPRPRPLGDPRP, for which the “shrunken log2 fold change” value came to 0.0783.

On to RRIRERPPRLPRPRPRPHTGPRP, for which the “shrunken log2 fold change” value was -1.1.

For the sequence RRIRFRPPRLPRPRPRPVPQPRP, the “shrunken log2 fold change” value was 0.261.

Take RRIRTRPPRLPRPRPRPAKPPRP: the “shrunken log2 fold change” value worked out at 0.583.

Turning to RRIRPRPPRLPRPRPRPCCNPRP, the “shrunken log2 fold change” value is -0.301.

Take RRIRNRPPRLPRPRPRPRWKPRP: the “shrunken log2 fold change” value is -0.109.

With RRIRNRPPRLPRPRPRPIDDPRP, the “shrunken log2 fold change” value came to 0.00709.

In the case of RRIRVRPPRLPRPRPRPVGQPRP, the “shrunken log2 fold change” value was found to be 0.0877.

With RRIRARPPRLPRPRPRPDCSPRP, the “shrunken log2 fold change” value amounted to 0.958.

As for RRIRMRPPRLPRPRPRPLKAPRP, the “shrunken log2 fold change” value is 0.541.

For RRIRARPPRLPRPRPRPVPRPRP, the “shrunken log2 fold change” value was found to be 0.536.

Take RRIRARPPRLPRPRPRPEDQPRP: the “shrunken log2 fold change” value was found to be 0.0203.

As to RRIRFRPPRLPRPRPRPFGPPRP, the “shrunken log2 fold change” value was -0.159.

Take RRIRQRPPRLPRPRPRPWYEPRP: the “shrunken log2 fold change” value came out at 0.0185.

On to RRIRDRPPRLPRPRPRPAFNPRP, for which the “shrunken log2 fold change” value was -0.223.

With RRIRVRPPRLPRPRPRPVCDPRP, the “shrunken log2 fold change” value came to 0.0894.

In the case of RRIRMRPPRLPRPRPRPSSWPRP, the “shrunken log2 fold change” value came out at 0.477.

For the sequence RRIRTRPPRLPRPRPRPINHPRP, the “shrunken log2 fold change” value is -0.718.

As to RRIRLRPPRLPRPRPRPVRLPRP, the “shrunken log2 fold change” value was found to be 0.576.

For the sequence RRIRVRPPRLPRPRPRPQVFPRP, the “shrunken log2 fold change” value was -0.0729.

Turning to RRIRMRPPRLPRPRPRPGKEPRP, the “shrunken log2 fold change” value worked out at 0.137.

For RRIRTRPPRLPRPRPRPFGVPRP, the “shrunken log2 fold change” value is 0.0203.

As to RRIRSRPPRLPRPRPRPITMPRP, the “shrunken log2 fold change” value is -0.639.

RRIRHRPPRLPRPRPRPVQNPRP: the “shrunken log2 fold change” value stood at 0.171.

In the case of RRIRERPPRLPRPRPRPVFWPRP, the “shrunken log2 fold change” value stood at 0.39.

Regarding RRIRNRPPRLPRPRPRPPTCPRP, the “shrunken log2 fold change” value was -0.221.

For the sequence RRIRMRPPRLPRPRPRPPERPRP, the “shrunken log2 fold change” value was 1.98.

For the sequence RRIRERPPRLPRPRPRPADVPRP, the “shrunken log2 fold change” value came out at 0.00489.

For RRIRVRPPRLPRPRPRPSHFPRP, the “shrunken log2 fold change” value is -0.443.

With RRIRQRPPRLPRPRPRPMAWPRP, the “shrunken log2 fold change” value is -0.128.

With RRIRKRPPRLPRPRPRPSCAPRP, the “shrunken log2 fold change” value is 0.523.

For the sequence RRIRCRPPRLPRPRPRPKHDPRP, the “shrunken log2 fold change” value was -0.0567.

Consider RRIRTRPPRLPRPRPRPSWVPRP, for which the “shrunken log2 fold change” value was -0.165.

In the case of RRIRIRPPRLPRPRPRPRLRPRP, the “shrunken log2 fold change” value is -0.0272.

Turning to RRIRPRPPRLPRPRPRPHTRPRP, the “shrunken log2 fold change” value was found to be 0.171.

On to RRIRMRPPRLPRPRPRPCTRPRP, for which the “shrunken log2 fold change” value was -0.0828.

As to RRIRMRPPRLPRPRPRPGQNPRP, the “shrunken log2 fold change” value was 0.0316.

Turning to RRIRGRPPRLPRPRPRPNHIPRP, the “shrunken log2 fold change” value is -0.444.

Consider RRIRIRPPRLPRPRPRPEEIPRP, for which the “shrunken log2 fold change” value is -0.0261.

Turning to RRIRTRPPRLPRPRPRPYSKPRP, the “shrunken log2 fold change” value is -0.565.

In the case of RRIRCRPPRLPRPRPRPWLEPRP, the “shrunken log2 fold change” value stood at 0.117.

Turning to RRIRTRPPRLPRPRPRPAITPRP, the “shrunken log2 fold change” value was -0.44.

On to RRIRCRPPRLPRPRPRPTHYPRP, for which the “shrunken log2 fold change” value came to 0.513.

Regarding RRIRCRPPRLPRPRPRPEQQPRP, the “shrunken log2 fold change” value was -0.0118.

Regarding RRIRKRPPRLPRPRPRPTNEPRP, the “shrunken log2 fold change” value came to 0.387.

RRIRQRPPRLPRPRPRPMRMPRP: the “shrunken log2 fold change” value was 0.0593.

Take RRIRKRPPRLPRPRPRPLGGPRP: the “shrunken log2 fold change” value is 0.288.

In the case of RRIRVRPPRLPRPRPRPGCAPRP, the “shrunken log2 fold change” value was found to be 0.757.

RRIRPRPPRLPRPRPRPTSGPRP: the “shrunken log2 fold change” value turned out to be 0.173.

RRIRQRPPRLPRPRPRPRKLPRP: the “shrunken log2 fold change” value turned out to be 0.0501.

With RRIRCRPPRLPRPRPRPIQQPRP, the “shrunken log2 fold change” value is -0.0847.

Turning to RRIRLRPPRLPRPRPRPKHMPRP, the “shrunken log2 fold change” value is -0.0682.

Consider RRIRERPPRLPRPRPRPAEAPRP, for which the “shrunken log2 fold change” value was -0.0209.

For RRIRSRPPRLPRPRPRPQNYPRP, the “shrunken log2 fold change” value is -0.322.

Take RRIRERPPRLPRPRPRPSTIPRP: the “shrunken log2 fold change” value was -0.551.

For RRIRRRPPRLPRPRPRPQTQPRP, the “shrunken log2 fold change” value came out at 0.506.

As for RRIRARPPRLPRPRPRPYSCPRP, the “shrunken log2 fold change” value is -0.43.

For RRIRQRPPRLPRPRPRPFRWPRP, the “shrunken log2 fold change” value is -0.0233.

RRIRERPPRLPRPRPRPDNSPRP: the “shrunken log2 fold change” value was -0.981.

As for RRIRNRPPRLPRPRPRPYHFPRP, the “shrunken log2 fold change” value was -0.309.

As for RRIRVRPPRLPRPRPRPLQAPRP, the “shrunken log2 fold change” value was determined as 0.432.

As to RRIRYRPPRLPRPRPRPDVYPRP, the “shrunken log2 fold change” value was -0.0212.

Consider RRIRMRPPRLPRPRPRPTVPPRP, for which the “shrunken log2 fold change” value came to 0.388.

These data come from the supplement of paper PMC9112550, “Optimization of the antimicrobial peptide Bac7 by deep mutational scanning” (BMC Biology, 2022).
